{
  "source": "paper PMC6385590",
  "about": "(European journal of immunology, 2015)",
  "binders": {"B1": {"name": "interferon regulatory factor 5 (IRF5) (natural protein, UniProt Q13568 1-498, looked up)", "chain": "MNQSIPVAPTPPRRVRLKPWLVAQVNSCQYPGLQWVNGEKKLFCIPWRHATRHGPSQDGDNTIFKAWAKETGKYTEGVDEADPAKWKANLRCALNKSRDFRLIYDGPRDMPPQPYKIYEVCSNGPAPTDSQPPEDYSFGAGEEEEEEEELQRMLPSLSLTEDVKWPPTLQPPTLRPPTLQPPTLQPPVVLGPPAPDPSPLAPPPGNPAGFRELLSEVLEPGPLPASLPPAGEQLLPDLLISPHMLPLTDLEIKFQYRGRPPRALTISNPHGCRLFYSQLEATQEQVELFGPISLEQVRFPSPEDIPSDKQRFYTNQLLDVLDRGLILQLQGQDLYAIRLCQCKVFWSGPCASAHDSCPNPIQREVKTKLFSLEHFLNELILFQKGQTNTPPPFEIFFCFGEEWPDRKPREKKLITVQVVPVAARLLLEMFSGELSWSADSIRLQISNPDLKDRMVEQFKELHHIWQSQQRLQPVAQAPPGAGLGVGQGPWPMHPAGMQ"}},
  "target": "T1, interferon regulatory factor 8 (IRF8) (human (endogenous in CAL-1 and primary …, UniProt Q02556 1-426))",
  "T1 sequence (looked up)": "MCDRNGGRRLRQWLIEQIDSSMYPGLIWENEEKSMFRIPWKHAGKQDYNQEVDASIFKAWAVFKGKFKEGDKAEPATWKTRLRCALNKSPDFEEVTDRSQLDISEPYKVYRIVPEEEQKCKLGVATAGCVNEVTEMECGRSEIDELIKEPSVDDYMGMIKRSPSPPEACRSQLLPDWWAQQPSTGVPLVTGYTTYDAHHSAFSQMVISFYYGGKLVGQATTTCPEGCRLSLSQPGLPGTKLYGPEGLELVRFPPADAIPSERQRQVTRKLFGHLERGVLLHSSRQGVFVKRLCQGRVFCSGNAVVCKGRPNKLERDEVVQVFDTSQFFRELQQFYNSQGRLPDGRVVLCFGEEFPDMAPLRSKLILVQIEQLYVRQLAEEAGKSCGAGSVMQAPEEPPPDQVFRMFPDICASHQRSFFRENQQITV",
  "test": "proximity ligation",
  "data": [
    {"binder": "B1", "values": [
      {"measurement": "fold of nuclear PLA colocalization over unstimulated cells (after 1 h CpG ODN)", "value": "> 3", "unit": "fold"}
    ]}
  ]
}
